# Measured values published in patent US20170058005A1 (priority 2014, published 2017).
# Entries after “also recorded” stand apart in the source; their conditions may differ.
# Experiments:
# DRB1*1501 (DR15) = DRB1*1501 (DR15) (Homo sapiens, UniProt P01903+P01911); format: binding
# DRB1*0101 (DR1) = DRB1*0101 (DR1) (Homo sapiens, UniProt P01903+P01911, A100R/D57E/F55L/F60I/F76Y/I96L/L162R/M171V/P40L/Q125E/R42F/V115G/Y59C); format: binding
# DRB1*0401 (DR4) = DRB1*0401 (DR4) (Homo sapiens, UniProt P01903+P01911, A100K/A169T/F76Y/I96L/K127E/L162R/M171V/N62H/P40V/Q125Y/R42H/S133A/S149N/S66Y/V115G/V209L/W38E); format: binding
# [1] = system: CD4^+ T cells of HLA class II transgenic mice; format: cell-based
# DRB1*0301 (DR3) = DRB1*0301 (DR3) (Homo sapiens, UniProt P01903+P01911, A100K/A102G/A103R/A169T/F55Y/I96L/K41T/L162R/M171V/P40S/Q125H/Q178H/Q39Y/R42S/S66N/T106N/T262R/W38E/Y61H); format: binding
# DRB1*1301 (DR13) = DRB1*1301 (DR13) (Homo sapiens, UniProt P01903+P01911, A100E/A169T/K41T/L162R/M171V/P40S/Q125H/Q178H/Q39Y/Q99D/R42S/S66N/T262R/W38E/Y61H); format: binding
# DRB1*0701 (DR7) = DRB1*0701 (DR7) (Homo sapiens, UniProt P01903+P01911, A100R/A102G/A103Q/D57E/D86V/E43K/F76Y/K127E/L162R/M171V/P40G/Q125H/Q99D/R33Q/R42Y/R54Q/S133A/S66F/T210M/V115G/Y107V/Y59L/Y89S); format: binding
# HLA-DR molecules = format: binding, human
# human PBMCs = format: cell-based
# DRB1*1101 (DR11) = DRB1*1101 (DR11) (Homo sapiens, UniProt P01903+P01911, A100R/A169T/A87E/I96F/K41T/L162R/M171V/P40S/Q125H/Q178H/Q39Y/Q99D/R42S/S66Y/T262R/V115G/W38E); format: binding
sequence,measurement,setting,value
KIYLYENMNINNLTATLGAD,"Relative binding affinity of peptide to HLA-DR molecules, DR15",DRB1*1501 (DR15),0.1
same,"Strong relative binding affinity of peptide to HLA-DR molecules, DR15",DRB1*1501 (DR15),+ (key: +: Strong binding affinity was defined in this study as a relative activity <10)
same,"Relative binding affinity of peptide to HLA-DR molecules, DR1",DRB1*0101 (DR1),0.2
same,"Strong relative binding affinity of peptide to HLA-DR molecules, DR1",DRB1*0101 (DR1),+ (key: +: Strong binding affinity was defined in this study as a relative activity <10)
same,"Relative binding affinity of peptide to HLA-DR molecules, DR4",DRB1*0401 (DR4),0.2
same,"Strong relative binding affinity of peptide to HLA-DR molecules, DR4",DRB1*0401 (DR4),+ (key: +: Strong binding affinity was defined in this study as a relative activity <10)
same,CD4 T cell response in LF immunized HLA transgenics,[1],recognised by all LF immunized HLA transgenics; also recorded: capable of eliciting a T cell response from all the HLA transgenics; also recorded: immunogenic in all three HLA-DR transgenic strains
same,HLA-restriction based on CD4 T cell response class II HLA transgenics after priming with LF,[1],"DR1, DR4, DR15,; also recorded: DQ8, DQ6"
same,Peptide-specific recall response,[1],strongest peptide recall in both groups
same,"Relative binding affinity of peptide to HLA-DR molecules, DR3",DRB1*0301 (DR3),1
same,"Strong relative binding affinity of peptide to HLA-DR molecules, DR3",DRB1*0301 (DR3),+ (key: +: Strong binding affinity was defined in this study as a relative activity <10)
same,"Relative binding affinity of peptide to HLA-DR molecules, DR13",DRB1*1301 (DR13),17
same,"Relative binding affinity of peptide to HLA-DR molecules, DR7",DRB1*0701 (DR7),5
same,"Strong relative binding affinity of peptide to HLA-DR molecules, DR7",DRB1*0701 (DR7),+ (key: +: Strong binding affinity was defined in this study as a relative activity <10)
same,Binding across all HLA-DR alleles assayed,HLA-DR molecules,strong binding affinity across all HLA-DR alleles assayed
same,"Binding to HLA-DR1, DR4 and DR15",HLA-DR molecules,strong binders to all three HLA-DR alleles
same,T cell recognition in human cohorts,human PBMCs,"recognized by a high proportion of naturally infected donors, but not vaccinated individuals"
same,"Relative binding affinity of peptide to HLA-DR molecules, DR11",DRB1*1101 (DR11),5
same,"Strong relative binding affinity of peptide to HLA-DR molecules, DR11",DRB1*1101 (DR11),+ (key: +: Strong binding affinity was defined in this study as a relative activity <10)
